Data: publication PMC8610301 (Current Research in Microbial Sciences, 2021)
Where two headings read alike, the source gives them in different places.

B1: recombinant Cas2 of Leptospira interrogans (LinCas2) (enzyme, UniProt Q8F1F4 1-94, looked up)
chain: MKHWRLVSYDIREPKRLRRVAKIMEGFGERIQYSVFRIYSTDKELEKLRWKLAKVTEEEDNIFYLTLCTKCASGAHTQEKKSAWPEAPKTLKIL
B2: native LinCas2 in the lysate of L. interrogans serovar Copenhageni (natural protein, UniProt Q8F1F4 1-94, looked up)
chain: B1 chain

What was measured:
[1] = target: the molecule itself; experiment: immunoblot after SDS-PAGE
[2] = target: the molecule itself; experiment: immunoblot after SDS-PAGE; remark: listed apart in the source

Row | Protein | stoichiometry N [1] | stoichiometry N [2]
1 | B1 | 2 | 
2 | B2 |  | 2
